Data on two molecules can be found in article PMC12295762, “Role of Individual Amino Acid Residues Directly Involved in Damage Recognition in Active Demethylation by ABH2 Dioxygenase”.

Holding throughout (assay): EMSA; 0.5 mM αKG, 10 mM Mg2+, 2 mM ascorbate; 50 mM Tris-HCl pH 8.0, 50 mM KCl, 10 mM MgCl2, 0.5 mM αKG, 2 mM sodium ascorbate; 1.2 µM DNA, 0.4-12.8 µM protein; 10 min 37 °C then 5 min on ice; 10% native PAGE, 0.5x TBE, 4-8 °C; Hill fit
Conditions in all cases: protein: recombinant; tags: N-terminal His6; label: 5'-FAM on strand 1; blunt
On the technique in general: Mobility shift assays separate free from complexed probe on a gel.

One series concerns the target T1, ABH2 S125A (human, UniProt Q6NS38 1-261, S125A).
T1 sequence: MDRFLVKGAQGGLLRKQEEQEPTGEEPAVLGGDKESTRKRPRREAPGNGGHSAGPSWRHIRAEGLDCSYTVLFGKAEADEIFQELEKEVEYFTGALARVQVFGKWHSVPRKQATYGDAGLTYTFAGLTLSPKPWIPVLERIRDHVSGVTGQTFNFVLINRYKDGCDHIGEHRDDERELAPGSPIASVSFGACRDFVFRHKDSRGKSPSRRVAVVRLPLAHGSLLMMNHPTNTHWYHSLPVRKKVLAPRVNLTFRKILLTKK

Another series has as its target T2, ABH2 F124A (human, UniProt Q6NS38 1-261, F124A).
T2 sequence: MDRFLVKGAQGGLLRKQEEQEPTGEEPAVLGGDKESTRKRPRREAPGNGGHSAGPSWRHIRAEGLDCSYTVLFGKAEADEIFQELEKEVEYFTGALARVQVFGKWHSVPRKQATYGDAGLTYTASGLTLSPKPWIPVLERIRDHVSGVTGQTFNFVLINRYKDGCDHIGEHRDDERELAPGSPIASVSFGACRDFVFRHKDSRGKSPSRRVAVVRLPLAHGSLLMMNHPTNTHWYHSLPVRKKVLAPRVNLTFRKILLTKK

In a further series the target is T3, ABH2 R172A (human, UniProt Q6NS38 1-261, R172A).
T3 sequence: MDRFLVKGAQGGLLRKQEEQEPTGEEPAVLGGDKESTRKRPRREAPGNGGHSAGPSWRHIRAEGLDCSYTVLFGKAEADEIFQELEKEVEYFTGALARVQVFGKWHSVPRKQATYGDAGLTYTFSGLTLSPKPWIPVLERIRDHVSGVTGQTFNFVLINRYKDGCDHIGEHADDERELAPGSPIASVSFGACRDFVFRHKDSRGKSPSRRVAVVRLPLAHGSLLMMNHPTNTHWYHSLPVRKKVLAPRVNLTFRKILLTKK

Another series concerns the target T4, ABH2 V99A (human, UniProt Q6NS38 1-261, V99A).
T4 sequence: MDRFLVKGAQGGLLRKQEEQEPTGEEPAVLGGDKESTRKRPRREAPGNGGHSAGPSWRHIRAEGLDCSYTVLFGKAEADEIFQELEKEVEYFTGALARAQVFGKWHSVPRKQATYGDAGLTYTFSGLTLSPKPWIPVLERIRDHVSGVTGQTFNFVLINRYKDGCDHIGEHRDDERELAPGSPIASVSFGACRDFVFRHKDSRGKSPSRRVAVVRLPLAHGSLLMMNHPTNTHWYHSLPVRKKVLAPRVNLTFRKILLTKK

Another series has as its target T5, ABH2 R110A (human, UniProt Q6NS38 1-261, R110A).
T5 sequence: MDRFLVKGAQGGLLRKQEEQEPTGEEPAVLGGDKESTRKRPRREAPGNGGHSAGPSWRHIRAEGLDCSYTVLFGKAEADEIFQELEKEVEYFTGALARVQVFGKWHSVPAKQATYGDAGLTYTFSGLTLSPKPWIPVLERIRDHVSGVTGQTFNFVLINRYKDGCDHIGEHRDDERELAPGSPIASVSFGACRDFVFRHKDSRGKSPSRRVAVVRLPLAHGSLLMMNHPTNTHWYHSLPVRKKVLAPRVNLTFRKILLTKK

For a further series, the target named is T6, ABH2 E175A (human, UniProt Q6NS38 1-261, E175A).
T6 sequence: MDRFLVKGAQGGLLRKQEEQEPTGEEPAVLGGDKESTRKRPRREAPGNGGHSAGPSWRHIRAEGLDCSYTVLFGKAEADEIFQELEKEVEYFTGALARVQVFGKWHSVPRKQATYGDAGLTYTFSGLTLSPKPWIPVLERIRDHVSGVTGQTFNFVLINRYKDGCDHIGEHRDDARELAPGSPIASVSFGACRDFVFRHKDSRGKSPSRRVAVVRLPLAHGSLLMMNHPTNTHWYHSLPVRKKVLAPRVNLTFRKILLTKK

B1: m1A dsDNA (dsDNA)
DNA 1: AGTTCAATGATCTTCAT
DNA 2: ATGAAGATCATTGAACT
modifications: N1-methyladenine (m1A) at position 10 of strand 1
Usually Kd stands for a measure of binding affinity in units of concentration. B1: the dissociation constant (Kd) came out at 2.7 ± 0.3 µM with ABH2 S125A; 3.1 ± 0.3 µM with ABH2 F124A; 2.1 ± 0.08 µM with ABH2 R172A; 3.2 ± 0.3 µM in the series with ABH2 V99A; 3.4 ± 0.2 µM with ABH2 R110A; 2.44 ± 0.06 µM with ABH2 E175A.

B2: m3C dsDNA (dsDNA)
DNA 1: AGTTCAATGATCTTCAT
DNA 2: ATGAAGATCATTGAACT
modifications: N3-methylcytosine (m3C) at position 12 of strand 1
Take B2: the Kd was 4 ± 0.3 µM with ABH2 S125A; 4.4 ± 0.7 µM in the series with ABH2 F124A; 2.6 ± 0.4 µM in the series with ABH2 R172A; 2.5 ± 0.6 µM with ABH2 V99A; 4 ± 0.3 µM with ABH2 R110A; 2.96 ± 0.04 µM with ABH2 E175A.
